Test results as given in patent US20210155689A1 (SHANGHAI PHARMAEXPLORER, published 2021).

Columns and labels:
[1] = molecular target: T1, monkey LAG-3 on cells (HEK293-cLAG-3 stable cell line) (monkey, UniProt P18627 24-525 (human entry)); experiment: FACS, HEK293-cLAG-3, antibody 40.000 nM
T1 construct: Full-length monkey (Chinese monkey) LAG-3 gene expressed on HEK293 cells
T1 chain: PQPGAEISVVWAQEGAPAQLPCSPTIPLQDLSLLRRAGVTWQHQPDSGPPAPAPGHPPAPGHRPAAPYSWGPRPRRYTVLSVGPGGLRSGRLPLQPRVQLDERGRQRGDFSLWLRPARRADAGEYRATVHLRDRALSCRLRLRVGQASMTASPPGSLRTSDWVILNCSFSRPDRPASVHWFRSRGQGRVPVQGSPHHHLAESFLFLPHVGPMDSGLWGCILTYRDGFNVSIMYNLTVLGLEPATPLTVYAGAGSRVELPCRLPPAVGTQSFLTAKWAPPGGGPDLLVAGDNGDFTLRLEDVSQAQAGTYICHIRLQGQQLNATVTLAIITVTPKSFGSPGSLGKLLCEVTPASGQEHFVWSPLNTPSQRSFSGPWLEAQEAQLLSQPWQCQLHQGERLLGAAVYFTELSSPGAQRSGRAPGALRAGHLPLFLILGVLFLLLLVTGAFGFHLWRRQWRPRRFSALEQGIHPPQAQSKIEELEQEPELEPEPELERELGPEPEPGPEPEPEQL
Text: The pIRES plasmid with the monkey-derived full-length gene was transfected into the HEK293 cell line to construct a HEK293 stable cell line containing monkey LAG-3 (herein referred to as HEK293-cLAG-3 stable cell line). The HEK293-hLAG-3 stable cell line and HEK293-cLAG-3 stable cell line were expanded in a T-75 cell culture flask to a 90% confluence. The medium was aspirated, and the cells were washed with HBSS (Hanks' Balanced Salt Solution) 1-2 times, then treated with a enzyme-free cell dissociation fluid (Versene solution: Life technology) and the cells were collected. The cells were washed with HBSS buffer for 1-2 times. After counted, the cells were diluted with HBSS to 1-2×10⁶ cells per ml, added with 1% goat serum blocking solution, incubated on ice for 20-30 minutes, and then washed with HBSS for 2 times by centrifugation. The collected cells were suspended in the FACS buffer (HBSS+1% BSA) to 2×10⁶ cells/ml, added as 100 microliters per well to a 96-well FACS reaction plate, added with 100 microliters per well of the antibody sample to be tested, incubated on ice for 1-2 hours. The plate was washed twice with the FACS buffer by centrifugation, added with 100 microliters of fluorescent (Alexa 488)-labeled secondary antibodies per well, and incubated on ice for 0.5-1.0 hours. The plate was washed 2-3 times with FACS buffer by centrifugation, added with 100 μl fixative solution (4% Paraformaldehyde) per well to suspend the cells. 5-10 minutes later, it was washed 1-2 times with FACS buffer by centrifugation. The cells were suspended with 100 microliters of FACS buffer, FACS (FACSCalibur, BD) was used for detection and the results were analyzed.

[2] = molecular target: T2, mouse LAG-3 protein with hFc tag (mLAG-3-hFc protein) (mouse; human, UniProt Q61790 24-442); experiment: ELISA, mLAG-3-hFc coated; 0.0007 nM
T2 construct: Made in HEK293 cells; also called mouse LAG-3 extracellular domain protein; not shown: human IgG Fc fragment (hFc) of the pCpC vector
T2 sequence: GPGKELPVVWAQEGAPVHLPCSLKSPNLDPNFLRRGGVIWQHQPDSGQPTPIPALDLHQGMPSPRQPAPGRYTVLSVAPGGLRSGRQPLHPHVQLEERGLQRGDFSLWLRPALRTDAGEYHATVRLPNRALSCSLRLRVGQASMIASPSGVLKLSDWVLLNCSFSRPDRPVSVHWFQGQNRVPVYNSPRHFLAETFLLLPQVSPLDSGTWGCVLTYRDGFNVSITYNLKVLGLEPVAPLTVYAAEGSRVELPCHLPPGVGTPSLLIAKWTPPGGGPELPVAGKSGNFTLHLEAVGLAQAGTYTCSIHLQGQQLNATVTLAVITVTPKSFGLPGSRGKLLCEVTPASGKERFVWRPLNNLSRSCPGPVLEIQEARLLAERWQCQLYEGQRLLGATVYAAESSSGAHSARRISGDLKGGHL
Procedure: (§1) The plate was sealed with plastic film and incubated overnight at 4° C. The plate was washed 2 times with the plate washing solution (PBS+0.01% Tween20) on the next day, and added with the blocking solution (PBS+0.01% Tween20+1% BSA) and blocked at room temperature for 1-2 hours. The blocking solution was poured out, and the plate was added with 50-100 μl of the antibody sample to be tested to each well, incubated at 37° C. for 1-2 hours, and washed 2-3 times with a plate washing solution (PBS+0.01% Tween20). HRP (horseradish peroxidase) labeled secondary antibody was added, and the plate was incubated at 37° C. for 1-2 hours, and washed 2-3 times with a plate washing solution (PBS+0.01% Tween20). 100 μl of TMB substrate was added to each well. After incubated at room temperature for 15-30 minutes, the plate was added with 100 μl of stop solution (1.0N HCl) to each well.

[3] = molecular target: T3, human LAG-3 protein with hFc tag (hLAG-3-hFc protein) (human, UniProt P18627 23-450); experiment: ELISA, hLAG-3-hFc coated; 66.6670 nM
T3 construct: also called immunogen 1; LAG-3 extracellular domain protein; not shown: human IgG Fc fragment (hFc) of the pCpC vector
T3 sequence: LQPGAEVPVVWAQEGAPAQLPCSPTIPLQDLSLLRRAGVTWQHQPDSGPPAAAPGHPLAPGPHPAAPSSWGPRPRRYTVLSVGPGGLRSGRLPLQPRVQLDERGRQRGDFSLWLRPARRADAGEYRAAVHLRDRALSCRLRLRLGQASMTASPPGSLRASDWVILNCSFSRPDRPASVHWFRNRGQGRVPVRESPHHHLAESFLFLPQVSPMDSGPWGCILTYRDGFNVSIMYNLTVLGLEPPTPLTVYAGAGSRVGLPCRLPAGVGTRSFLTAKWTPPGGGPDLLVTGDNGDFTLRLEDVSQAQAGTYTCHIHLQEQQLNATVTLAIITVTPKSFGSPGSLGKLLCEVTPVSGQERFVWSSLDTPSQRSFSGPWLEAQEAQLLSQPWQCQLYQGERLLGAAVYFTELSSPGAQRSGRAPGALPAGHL
Procedure: as §1

Row | Binder | Mean fluorescence intensity [1] | OD450 [2] [OD450] | OD450 [3] [OD450]
1 | 105F1E10 mouse-human chimeric antibody (antibody, V domains shown, also called mAb009-105F1E10) VH: EVQLQQSGPELVKPGASVKMSCRASGYTFTDFKMHWMKQSHGKSLEWIGYIAPNNGGTAYNQKFRGKATLTVNESSNTAYMELRSLTSEDSAVYYCVDWDDVDYWGQGTTLTVSS VL: DIKMTQSPSSMYASLGERVTITCKASQDINSYLSWFQQKSGKSPKTLIYRANRLVDGVPSRFSGSGSGQDYSLTISSLEYEDMGIYYCLQYVEFPLTFGAGTKLELK | 64.6 | – | –
2 | 405B8H3 mouse-human chimeric antibody (antibody, V domains shown, also called mAb103-405B8H3) VH: QVQLQQSGAELVRPGASVTLSCKASGYTFTDYEMHWVKQTPVHGLEWIGATDPETGNSAYNQKFKGKAIMTADKSSSTAYMELRSLTSEDSAVYYCISTGWNDWGQGTSLTVSS VL: DIKMTQSPSSMYASLGERVTITCKASQDINSYLSWFQQKPGKSPKTLIYRADRLLDGVPSRFSGSGSGQDYSLTISSLEYGDMGIYYCLQYDEFPYTFGGGTKLEIK | 90.8 | – | –
3 | 105F1E10 (LAG-3 mouse-human chimeric antibody) (antibody, V domains shown) VH: EVQLQQSGPELVKPGASVKMSCRASGYTFTDFKMHWMKQSHGKSLEWIGYIAPNNGGTAYNQKFRGKATLTVNESSNTAYMELRSLTSEDSAVYYCVDWDDVDYWGQGTTLTVSS VL: DIKMTQSPSSMYASLGERVTITCKASQDINSYLSWFQQKSGKSPKTLIYRANRLVDGVPSRFSGSGSGQDYSLTISSLEYEDMGIYYCLQYVEFPLTFGAGTKLELK | – | 0.08 | 3.6
4 | 405B8H3 (LAG-3 mouse-human chimeric antibody) (antibody, V domains shown, also called mouse-human chimeric antibody 405B8H3) VH: QVQLQQSGAELVRPGASVTLSCKASGYTFTDYEMHWVKQTPVHGLEWIGATDPETGNSAYNQKFKGKAIMTADKSSSTAYMELRSLTSEDSAVYYCISTGWNDWGQGTSLTVSS VL: DIKMTQSPSSMYASLGERVTITCKASQDINSYLSWFQQKPGKSPKTLIYRADRLLDGVPSRFSGSGSGQDYSLTISSLEYGDMGIYYCLQYDEFPYTFGGGTKLEIK | – | 0.08 | 3.57
5 | 409B11E12 (LAG-3 mouse-human chimeric antibody) (antibody, V domains shown) VH: QVQLQQSGAELVRPGASVTLSCKASGYTFTDYEMHWVKQTTVHGLEWIGATDPETSYSAYNQKFKGKAILTADKSSSTAYMELRSLTSEDSAVYYCIATGWNDWGQGTSLTVSS VL: DLKMTQSPSSMYASLGERVTITCKASQDINSYLSWFQQKPGKSPKTLIYRANRLLDGVPSRFSGSGSGQDYSLTISSLEYEDMGIYYCLQYDEFPYTFGGGTKLEIK | – | 0.08 | 3.59
6 | 409D4E10 mouse-human chimeric antibody (antibody, V domains shown, also called mAb112-409D4E10) VH: QVQLQQSGAELVRPGASVTLSCKASGNTFTDYEMHWVKQTPVHGLEWIGATDPETDNTAYNQKFKGKAILTTDKSSSTAYMELRSLTSEDSAVYYCITSGWNDWGQGTSLTVSS VL: DIKMTQSPSSMYASLGERVTITCKASQDINSYLSWFQQKPGKSPKTLIYRANRLLDGVPSRFSGSGSGQDYSLTISSLEYEDMGIYYCLQYNEFPYTFGGGTKLEIK | 93.4 | – | –
7 | 409B11E12 mouse-human chimeric antibody (antibody, V domains shown, also called mAb104-409B11E12) VH: QVQLQQSGAELVRPGASVTLSCKASGYTFTDYEMHWVKQTTVHGLEWIGATDPETSYSAYNQKFKGKAILTADKSSSTAYMELRSLTSEDSAVYYCIATGWNDWGQGTSLTVSS VL: DLKMTQSPSSMYASLGERVTITCKASQDINSYLSWFQQKPGKSPKTLIYRANRLLDGVPSRFSGSGSGQDYSLTISSLEYEDMGIYYCLQYDEFPYTFGGGTKLEIK | 108 | – | –
8 | 409D4E10 (LAG-3 mouse-human chimeric antibody) (antibody, V domains shown) VH: QVQLQQSGAELVRPGASVTLSCKASGNTFTDYEMHWVKQTPVHGLEWIGATDPETDNTAYNQKFKGKAILTTDKSSSTAYMELRSLTSEDSAVYYCITSGWNDWGQGTSLTVSS VL: DIKMTQSPSSMYASLGERVTITCKASQDINSYLSWFQQKPGKSPKTLIYRANRLLDGVPSRFSGSGSGQDYSLTISSLEYEDMGIYYCLQYNEFPYTFGGGTKLEIK | – | 0.13 | 3.73
9 | 556F6B8 mouse-human chimeric antibody (antibody, V domains shown, also called mAb123-556F6B8; 556F8B8) VH: RVQLKQSGPGLVQPSQSLSITCTVSGFSLIKYGVHWVRQSPGEGLEWLGVIWRGGITDYNAAFMSRLSITKDNSKSQVFFKMNSLQADDTAIYYCAKWDGPLAMDYWGQGTSVTVSS VL: DIVMTQSHKFLSTSVGDRVSITCKASQDVGTTVAWYQQKPGQSPKLLIYWASTRHTGVPDRFTGSGSGTDFTLTISNVQSEDLADYFCQQYSSYPYTFGGGTKLEIK | 74.4 | – | –
10 | 556F6B8 (LAG-3 mouse-human chimeric antibody) (antibody, V domains shown, also called 556F8B8) VH: RVQLKQSGPGLVQPSQSLSITCTVSGFSLIKYGVHWVRQSPGEGLEWLGVIWRGGITDYNAAFMSRLSITKDNSKSQVFFKMNSLQADDTAIYYCAKWDGPLAMDYWGQGTSVTVSS VL: DIVMTQSHKFLSTSVGDRVSITCKASQDVGTTVAWYQQKPGQSPKLLIYWASTRHTGVPDRFTGSGSGTDFTLTISNVQSEDLADYFCQQYSSYPYTFGGGTKLEIK | – | 0.08 | 3.69
